Test results as given in PMC7901972.

Molecular target: thrombin

recombinant AsKunitz (natural protein)
inhibition of the enzymatic activity of thrombin on a chromogenic substrate (Vmax against the reaction without inhibitor), IC50: 650 nM
